Results published in patent US20210002623.

What was measured:
[1] = target: T1, H-Trp-Phe-Tyr-Ser(PO3H2)-Pro-Arg-pNA
T1 chain: WFYSPR

peptide YFLMNENRYTSWNSE = target: T2, peptide YFLMNENRYTSWNSE
T2 chain: YFLMNENRYTSWNSE

B1: MjTET (TET aminopeptidase of Methanocaldococcus jannaschii, product of gene MJ0555) (protein)
chain: MSVVEYLKKLSKLHGISGREDSVREFMKKELEKYCDSVEIDNFGNLIAKRGNKGKKIMIAAHMDEIGLMVKYIDDNGFLKFTKIGGIYDPTILNQKVVVHGSKGDLIGVLGSKPPHRMKEEEKTKIIKYEDMFIDIGAESREEAIEMGVNIGTWVSFLSEVYDLGKNRLTGKAFDDRVGCAVLLEVMKRLSEEDIDCQVYAVGTVQEEVGLKGARVSAFKINPDVAIALDVTIAGDHPGIKKEDAPVDLGKGPVVGIVDASGRGLIAHPKVLDMIKAVSEKYKIDVQWEVGEGGTTDATAIHLTREGIPTGVISVPARYIHTPVEVIDKRDLEKTVELVYNCIKEVNNFF
[1]
  peptide hydrolysis followed by reverse phase HPLC: After 5 minutes, the original peptide substrate was almost hydrolyzed and four peptide products were detected
Peptide YFLMNENRYTSWNSE
  time necessary to hydrolyse 50% of the peptide, at 20 °C: 75 h
  time necessary to hydrolyse 50% of the peptide, at 30 °C: 55 h
  time necessary to hydrolyse 50% of the peptide, at 40 °C: 3.9 h
  time necessary to hydrolyse 50% of the peptide, at 50 °C: 1.3 h
  time necessary to hydrolyse 50% of the peptide, at 60 °C: 1 h
  time necessary to hydrolyse 50% of the peptide, at 70 °C: 0.6 h
  time necessary to hydrolyse 50% of the peptide, at 80 °C: 0.25 h

B2: PhTET2 (leucyl aminopeptidase of Pyrococcus horikoshii) (protein)
chain: MEVRNMVDYELLKKVVEAPGVSGYEFLGIRDVVIEEIKDYVDEVKVDKLGNVIAHKKGEGPKVMIAAHMDQIGLMVTHIEKNGFLRVAPIGGVDPKTLIAQRFKVWIDKGKFIYGVGASVPPHIQKPEDRKKAPDWDQIFIDIGAESKEEAEDMGVKIGTVITWDGRLERLGKHRFVSIAFDDRIAVYTILEVAKQLKDAKADVYFVATVQEEVGLRGARTSAFGIEPDYGFAIDVTIAADIPGTPEHKQVTHLGKGTAIKIMDRSVICHPTIVRWLEELAKKHEIPYQLEILLGGGTDAGAIHLTKAGVPTGALSVPARYIHSNTEVVDERDVDATVELMTKALENIHELKI
Peptide YFLMNENRYTSWNSE
  time necessary to hydrolyse 50% of the peptide, at 40 °C: 0.5 h for PhTET2 compared to 3,9 h for MjTET at 40 °C
